This data set is described as follows: amyloid nucleation score (Sup35N fusion, yeast selection) (log enrichment); library NNK2; higher = more nucleation; inactive = no reads after selection. In a few lines: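 Yeast lacking psi expressed peptides of 20 random codons fused to Sup35N, received 100 μM copper sulfate for 24 hours, and were then grown for 7 days at 30°C on medium lacking adenine and uracil. Illumina sequencing of input and output plasmid inserts provided the reads. Nucleation scores are DiMSum log enrichments of output over input, centred on the mode of non-aggregating sequences. Any sequence with under 100 input reads was excluded.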

± gives the uncertainty stated by the source.

Substance NKRMRVRVEGRLINV yielded an amyloid nucleation score of 0.089 ± 0.42.
Turning to DKYSWRKNGCGGWCVTTVVG, the amyloid nucleation score stood at 0.573 ± 0.3.
The same measure for IDVGI: 0.106 ± 0.2; for ISCKSFENTTHPALIPRVKA: -0.331 ± 0.5.
Take PWTRWGVSFAFKAVNKCVHV: the amyloid nucleation score was -1 ± 0.76.
The same measure for LDYSNFNTRKFAKDEGDMRR: 8.371 ± 0.049; for GYDLYLTEWRSVFTAVIANE: -0.055 ± 1.1; for YRRQPS: 0.174 ± 0.56.
The same measure for AYHNLRN: 0.191 ± 0.63; for QSGLIHY: -0.894 ± 0.78.
Substance YCTSDG had an amyloid nucleation score of 0.559 ± 0.8.
The same measure for LYWKSGEHIWYLGSILGCVG: 0.593 ± 0.56; for YCTPCLW: 0.452 ± 0.66.
The same measure for AVVFSNCGCFSMKFYMVVAT: -2.06 ± 0.48.
The same measure for NVRDMCLSACTSQWYYYFAV: 0.371 ± 0.37; for DQCPFFSVWWSSLDYSWM: -0.094 ± 1.
As for IKLLLMSLTVSVTGILQFKP, the amyloid nucleation score worked out at 4.51 ± 0.05.
For the substance RDWRVFIYFMGNVVLDY, the amyloid nucleation score came to 5.59 ± 0.08.
The same measure for TMGNHFVFVS: “inactive”.
The same measure for SQNETFFKMCVELN: 0.165 ± 0.54; for YVAILFRFRRSIMFNLLIQM: -0.318 ± 0.8; for TGENI: “inactive”.
The same measure for LVHFVVSALKT: “inactive”.
On to RSIDRYRHHNLCRNQYVM, for which the amyloid nucleation score is -0.693 ± 1.1.
The same measure for ISVFLVMQRCVYDSYAFQAE: -0.503 ± 0.63; for KCDLMRWSHFQ: 1.24 ± 0.48.
Turning to NMRTNLWNIIAFLSSRSIAQ, the amyloid nucleation score was determined as 0.857 ± 0.35.
The same measure for MVVSFGRLGGNLRRNLKVRI: 0.214 ± 0.65.
In the case of RSDRVIGDMTGAECITLGRL, the amyloid nucleation score is -0.82 ± 0.45.
Regarding SVNYMAFWKVPTCGLQGGKG, the amyloid nucleation score was -0.097 ± 0.76.
The same measure for FSVCHVQDCSSAGRMYYLRL: 3.98 ± 0.055.
The substance AAFQSMENCCAFCSVRRQES showed an amyloid nucleation score of -0.406 ± 0.38.
RKWQED gave an amyloid nucleation score of 0.488 ± 0.47.
With LYLTGNF, the amyloid nucleation score was -0.199 ± 0.76.
The same measure for NFTYVSIVMLLSRVWVGFNK: “inactive”; for ALVCLMKSSFCTCEHLYDVR: 7.168 ± 0.044; for IVDSVR: 0.388 ± 0.32.
SPDRPPSVVVVDRSGDVMVC: the amyloid nucleation score came out at 1.57 ± 0.15.
The same measure for RYSRFSDQSMFSRPYA: 0.333 ± 0.31.
In the case of TEPSGTGKTRGSQRTLHRYV, the amyloid nucleation score is -0.323 ± 0.79.
The same measure for AMMFDVFRYLRESVISMCKG: 0.367 ± 0.54; for GGQLGGPWPANSLYNVTAVT: -0.075 ± 0.31.
Regarding CHYKMHSLHTARFEFFVMLF, the amyloid nucleation score is -0.413 ± 0.41.
The substance NRCLGIT gave an amyloid nucleation score of 0.231 ± 0.48.
The same measure for CSAVAALLPILGMELIGTSI: -0.41 ± 0.55; for LCWLIVGKCGKGKTYDGFIG: -0.78 ± 1.1.
Regarding KCLCAGFLF, the amyloid nucleation score was -0.577 ± 0.38.
The same measure for VIIINIVFKSGMGQLLGHRR: 6.53 ± 0.074.
DSTPLGYSVLLSWTLVQRNL had an amyloid nucleation score of 1.38 ± 0.54.
The same measure for SMSYDRWKAKS: -0.446 ± 0.48; for LVQLMMMFWKRGLRDSANMV: -1.13 ± 0.78.
The same measure for PPHRAYGILMMNTRRTSSIT: 0.604 ± 0.37.
The same measure for NRLSELGPCFHLFTSV: 0.089 ± 1.1; for QYSTSV: -0.548 ± 0.61.
AGFWEDEVFRV had an amyloid nucleation score of -0.714 ± 0.48.
The same measure for EIYGFLVIICLLYGSLVSRW: -0.2 ± 0.45; for PQINMGVLAGGVYHYSTCGK: 0.196 ± 0.74.
The same measure for FWRLWIVCIPLVYLRR: 0.131 ± 1.
The same measure for LFVIGLLSGVSICVYCRSWS: 3.41 ± 0.11; for RQVSHVNFAVLNINYNWYRS: 8.16 ± 0.084.
RWDCLQLLISSCFFDMDGCG returned an amyloid nucleation score of -0.668 ± 0.64.
The same measure for ILMCETLWNWLKWIPKFNSC: -0.403 ± 0.5.
For WGLFPLQCHLVYRLLLSFHK, the amyloid nucleation score entry is “inactive”.
In turn, FFCSSRPDE showed an amyloid nucleation score of -0.286 ± 0.8.
The same measure for RGFVLETLWSMTIVVQKFNL: “inactive”.
The substance SSLVGFERGRSMGRGMWVDL yielded an amyloid nucleation score of 0.041 ± 0.63.
The same measure for YRWVHLEFGARLAFQSVKNI: 0.241 ± 0.8; for DSGVAHCANPCRPYREPVQS: 1.09 ± 0.37.
The same measure for DSSCFIIRLHSEFMLGSRSF: -0.715 ± 0.79; for LNVITSVTLRVDWRAVWRKY: 0.134 ± 0.53; for NLFLLYEAW: -0.155 ± 0.2.
The same measure for SISVKGLSGRLTVRYLLILV: -0.669 ± 1; for TTGRKFMMIVTGGCGESGRF: -0.77 ± 0.42.
In the case of CNLSSCGHSFINLSYEDLCQ, the amyloid nucleation score entry is “inactive”.
In turn, SVKYFLDSVDVWIDIISAFF showed an amyloid nucleation score of 0.256 ± 0.55.
The same measure for NSTLRSLYTVFFIRMLQMVG: -0.753 ± 0.36; for HIILIEGSMVCQTLVRGDLV: 5.514 ± 0.042; for IVTAGWNLVFRKYADTRMVQ: -0.337 ± 1.1.
As to CCTTIEGDTLCGCFWD, the amyloid nucleation score stood at 10.08 ± 0.038.
The substance RFVIVIPQFYYVYFLRRSWT registered an amyloid nucleation score of -1.24 ± 1.
As to DTCWEGCLTKTYFW, the amyloid nucleation score was -1.29 ± 0.75.
As to GLISDYFSPSCIVYAGVR, the amyloid nucleation score entry was “inactive”.
The same measure for INRCMLIPTRFVVAYSWKCV: -1.03 ± 0.78; for LSVCGSWDRRRFGGYDLWCT: 0.903 ± 0.48; for GAGPEEPDSLDEVIVT: 0.202 ± 0.3.
For NSFVCMLPGVFVKCRCSNAD, the amyloid nucleation score was 4.832 ± 0.044.
The same measure for DCFPLLLNRFRPEHYVRWHR: 0.887 ± 0.57; for CIMPVCVYDCLPLGRGIYWR: 0.745 ± 0.22.
The same measure for NYKNVVSFLVR: “inactive”; for YRINEDET: -1.55 ± 0.41.
The same measure for FGADNGSPRSE: -0.354 ± 0.76; for YHNCNQHSWYRMRCFG: -0.417 ± 1.1; for DEGKA: -0.507 ± 0.42.
Regarding GLWRLYWILFHF, the amyloid nucleation score is -1.17 ± 0.78.
YGDGGDIC registered an amyloid nucleation score of -0.612 ± 0.35.
The same measure for HVLFIAKLDFALTEFLRMCE: 0.735 ± 0.19; for LFSVVLVGGARRSYLRGGPG: 0.611 ± 0.81.
Substance NRFDDVSDDVKTCC showed an amyloid nucleation score of 5.82 ± 0.059.
The same measure for WTFEFLIRVLEWRSVMFFAG: “inactive”; for NGWIYAYDLLLERTSQSWKI: -0.472 ± 0.32.
The same measure for GALGTRRFSGMCLVCESRSG: 5.28 ± 0.097; for YNESVHANVYVLLILKGLES: 6.621 ± 0.048; for VSSNSVWSIY: -1.01 ± 0.44.
The same measure for NFNHVSEI: “inactive”.
The substance RFRWTSVSRVKGCFNKMYPS came in with an amyloid nucleation score of 0.1 ± 0.3.
The same measure for EDFRGLIKL: “inactive”.
The same measure for SVLMSCD: 0.135 ± 0.65; for LVFRMQHSLTHGLLSEPGNR: 2.28 ± 0.17; for VWSSLGRECPSSCIVFLSVE: -0.464 ± 0.78.
The same measure for LWNVD: 2.94 ± 0.19; for RINGRRWGFTWVASGLEYFG: 1.87 ± 0.11; for RYGRRSYLPAIIRCARCLDE: 6.56 ± 0.066.
Regarding WNSVIFCR, the amyloid nucleation score was -0.704 ± 0.37.
The same measure for SLKCDCYFSTGHI: “inactive”.
The same measure for EEYIRRQGVLTASLVYSKYI: “inactive”; for LVGKFNWCEVQKKCSRFRCR: -0.29 ± 0.62; for CFVKRLHVLWLSKTVCRAVL: 0.113 ± 0.21.
The same measure for GVVARSIVAGNLALIIRRRM: 0.253 ± 0.42; for SWVEGRLDGVFWRLVLFTEN: 0.433 ± 0.74.
NWLQDK had an amyloid nucleation score of 1.61 ± 0.55.
Take TGCWVEERTRLRLRIYDLLY: the amyloid nucleation score amounted to 0.004 ± 1.1.
The same measure for DRYYRISSFYFISMTKLWD: “inactive”; for ILVWANSHVLDVDHRDRGRR: 1.9 ± 0.13.
The same measure for ANSPVGHEPGFECKSGFRET: 0.168 ± 0.57; for RFPVGRLFWQEFRYSDQGVA: 1.17 ± 0.23.
YMERIYRWYSQCNRCQVRLW returned an amyloid nucleation score of -0.644 ± 0.54.
On to VPTCN, for which the amyloid nucleation score was determined as 0.123 ± 0.54.
The same measure for MYWFGTVHQFRKFSENHRMF: 0.721 ± 0.8; for QQKPVLGLCFWERAGHLSNR: “inactive”.
The substance CCVVIKN displayed an amyloid nucleation score of 6.08 ± 0.079.
The same measure for RYRHLTFLVFCIAVPVGFWR: 2.04 ± 0.14; for TVHDYFDVQECVIDQCKGLP: 0.654 ± 0.57.
The same measure for TLFSVCSIHEQWPGEVMVSY: 0.918 ± 0.47; for CRYEIKLCYDLMQNPLFTRS: -0.522 ± 0.41; for KFYYVTGDATLNRDLWGSRA: -0.79 ± 0.34.
The same measure for LSSVMN: -0.565 ± 0.33; for TWNLMNKVYIVPGLDPDTRS: 7.225 ± 0.055; for FMLSVPNVDRFVRRMLGTPE: 1.05 ± 0.42.
For FSIGCVMGLAINLSGFALWV, the amyloid nucleation score amounted to 1.84 ± 0.14.
The same measure for TFDPMVGLGISLSALCMGRL: -0.104 ± 0.39.

Values taken from the supplement of paper PMC12042874.
